Source: patent US20250152746A1, “BASE EDITING OF ANGPTL3 AND METHODS OF USING SAME FOR TREATMENT OF DISEASE” (Verve Therapeutics, Inc., priority 2020, published 2025)
In the oligonucleotide strings, read from the 5' end, every base follows the letter of its sugar. An asterisk marks phosphorothioate; unmarked linkages are phosphodiester. Other units and linkages are bracketed, terminal groups are in braces. A string of capitals states the bases alone. m = 2'-O-methyl; r = 2'-OH (RNA)

B1: GA176: PCSK9 gRNA; protospacer AGCACCACCACGTAGGTGCC (SEQ ID NO: 170) (nucleic acid)
guide: AGCACCACCACGUAGGUGCCGUUUUAGAGCUAGAAAUAGCAAGUUAAAAUAAGGCUAGUCCGUUAUCAACUUGAAAAAGUGGCACCGAGUCGGUGCUUUU
modifications: sugars from the 5' end m3 r94 m3, linkages s3 o93 s3 (s phosphorothioate, o phosphodiester), T or U not given here
B2: GA173: PCSK9 gRNA; protospacer CTTGGTGAGGTATCCCCGGC (SEQ ID NO: 167) (nucleic acid)
guide: CUUGGUGAGGUAUCCCCGGCGUUUUAGAGCUAGAAAUAGCAAGUUAAAAUAAGGCUAGUCCGUUAUCAACUUGAAAAAGUGGCACCGAGUCGGUGCUUUU
modifications: sugars from the 5' end m3 r94 m3, linkages s3 o93 s3 (s phosphorothioate, o phosphodiester), T or U not given here
B3: GA178: PCSK9 gRNA; protospacer CTCCTTCAGCACCACCACGT (SEQ ID NO: 172) (nucleic acid)
guide: mC*mU*mC*rCrUrUrCrArGrCrArCrCrArCrCrArCrGrUrGrUrUrUrUrArGrArGrCrUrArGrArArArUrArGrCrArArGrUrUrArArArArUrArArGrGrCrUrArGrUrCrCrGrUrUrArUrCrArArCrUrUrGrArArArArArGrUrGrGrCrArCrCrGrArGrUrCrGrGrUrGrCrU*mU*mU*mU
B4: GA175: PCSK9 gRNA; protospacer GAAGATGAGTGGCGACCTGC (SEQ ID NO: 169) (nucleic acid)
guide: GAAGAUGAGUGGCGACCUGCGUUUUAGAGCUAGAAAUAGCAAGUUAAAAUAAGGCUAGUCCGUUAUCAACUUGAAAAAGUGGCACCGAGUCGGUGCUUUU
modifications: sugars from the 5' end m3 r94 m3, linkages s3 o93 s3 (s phosphorothioate, o phosphodiester), T or U not given here
B5: GA172: PCSK9 gRNA; protospacer CAGTGCGCTCTGACTGCGAG (SEQ ID NO: 166) (nucleic acid)
guide: CAGUGCGCUCUGACUGCGAGGUUUUAGAGCUAGAAAUAGCAAGUUAAAAUAAGGCUAGUCCGUUAUCAACUUGAAAAAGUGGCACCGAGUCGGUGCUUUU
modifications: sugars from the 5' end m3 r94 m3, linkages s3 o93 s3 (s phosphorothioate, o phosphodiester), T or U not given here
B6: GA174: PCSK9 gRNA; protospacer GGATCTTGGTGAGGTATCCC (SEQ ID NO: 168) (nucleic acid)
guide: GGAUCUUGGUGAGGUAUCCCGUUUUAGAGCUAGAAAUAGCAAGUUAAAAUAAGGCUAGUCCGUUAUCAACUUGAAAAAGUGGCACCGAGUCGGUGCUUUU
modifications: sugars from the 5' end m3 r94 m3, linkages s3 o93 s3 (s phosphorothioate, o phosphodiester), T or U not given here
B7: GA171: PCSK9 gRNA; protospacer TCTTGGTGAGGTATCCCCGG (SEQ ID NO: 165) (nucleic acid)
guide: UCTTGGTGAGGTATCCCCGGGTTTTAGAGCTAGAAATAGCAAGTTAAAATAAGGCTAGTCCGTTATCAACTTGAAAAAGTGGCACCGAGTCGGTGCTTTT
modifications: 2'-O-methyl at 1, 2, other sugars, backbone and T or U not given here; further chemistry not fully specified
B8: GA170: PCSK9 gRNA; protospacer CCAGGACCGCCTGGAGCTGA (SEQ ID NO: 164) (nucleic acid)
guide: CCAGGACCGCCUGGAGCUGAGUUUUAGAGCUAGAAAUAGCAAGUUAAAAUAAGGCUAGUCCGUUAUCAACUUGAAAAAGUGGCACCGAGUCGGUGCUUUU
modifications: sugars from the 5' end m3 r94 m3, linkages s3 o93 s3 (s phosphorothioate, o phosphodiester), T or U not given here
B9: GA179: PCSK9 gRNA; protospacer GAGTGGCGACCTGCTGGAGC (SEQ ID NO: 173) (nucleic acid)
guide: mG*mA*mG*rUrGrGrCrGrArCrCrUrGrCrUrGrGrArGrCrGrUrUrUrUrArGrArGrCrUrArGrArArArUrArGrCrArArGrUrUrArArArArUrArArGrGrCrUrArGrUrCrCrGrUrUrArUrCrArArCrUrUrGrArArArArArGrUrGrGrCrArCrCrGrArGrUrCrGrGrUrGrCrU*mU*mU*mU
B10: GA177: PCSK9 gRNA; protospacer GGTCGCCACTCATCTTCACC (SEQ ID NO: 171) (nucleic acid)
guide: GGUCGCCACUCAUCUUCACCGUUUUAGAGCUAGAAAUAGCAAGUUAAAAUAAGGCUAGUCCGUUAUCAACUUGAAAAAGUGGCACCGAGUCGGUGCUUUU
modifications: sugars from the 5' end m3 r94 m3, linkages s3 o93 s3 (s phosphorothioate, o phosphodiester), T or U not given here
B11: GA180: PCSK9 gRNA; protospacer GCGCACTGCCCGCCGCCTGC (SEQ ID NO: 174) (nucleic acid)
guide: mG*mC*mG*rCrArCrUrGrCrCrCrGrCrCrGrCrCrUrGrCrGrUrUrUrUrArGrArGrCrUrArGrArArArUrArGrCrArArGrUrUrArArArArUrArArGrGrCrUrArGrUrCrCrGrUrUrArUrCrArArCrUrUrGrArArArArArGrUrGrGrCrArCrCrGrArGrUrCrGrGrUrGrCrU*mU*mU*mU

How the values were obtained:
PCSK9 gene [1] = experiment: PCSK9 gRNA/SpCas9 editing in primary cynomolgus hepatocytes (Tables 2, 22); assay type: cell-based, cynomolgus monkey; settings: SpCas9 mRNA MS002 1:1 by weight; for Cyno Primary Hepatocyte Editing % 100: 100 ng/RNA/mL; for Cyno Primary Hepatocyte Editing % 500: 500 ng/RNA/mL; for Cyno Primary Hepatocyte Editing % 2500: 2500 ng/RNA/mL
PCSK9 gene [2] = experiment: PCSK9 gRNA/SpCas9 editing in primary human hepatocytes (Tables 2, 4); assay type: cell-based; settings: SpCas9 mRNA MS002 1:1 by weight; for Human Primary Hepatocyte Editing % 100: 100 ng/RNA/mL; for Human Primary Hepatocyte Editing % 500: 500 ng/RNA/mL; for Human Primary Hepatocyte Editing % 2500: 2500 ng/RNA/mL
How it was run: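 Primary human hepatocytes co-transfected with PCSK9 gRNA plus SpCas9 mRNA (1:1 by weight) at 2500, 500 or 100 ng RNA/mL, or 2500–250 ng/mL for tracr-modified guides. Editing at the target site read by amplicon next-generation sequencing of extracted genomic DNA.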

| Molecule | Cyno Primary Hepatocyte Editing % 100 (PCSK9 gene [1]) | Cyno Primary Hepatocyte Editing % 500 (PCSK9 gene [1]) | Cyno Primary Hepatocyte Editing % 2500 (PCSK9 gene [1]) | Human Primary Hepatocyte Editing % 100 (PCSK9 gene [2]) | Human Primary Hepatocyte Editing % 500 (PCSK9 gene [2]) | Human Primary Hepatocyte Editing % 2500 (PCSK9 gene [2]) |
| --- | --- | --- | --- | --- | --- | --- |
| B1 | 2.11% | 8.11% | 22.65% | 0.36% | 1.26% | 4.98% |
| B2 | 2.06% | 8.70% | 35.03% | 0.69% | 3.94% | 23.38% |
| B3 | 2.21% | 5.78% | 25.22% | 1.26% | 5.43% | 18.29% |
| B4 | 1.45% | 12.37% | 44.77% | 1.55% | 7.53% | 24.81% |
| B5 | 0.51% | 2.11% | 15.58% | 0.32% | 3.52% | 14.01% |
| B6 | 1.60% | 4.88% | 18.65% | 1.18% | 5.24% | 14.74% |
| B7 | 1.29% | 9.06% | 27.79% | 2.37% | 9.38% | 31.75% |
| B8 | 4.03% | 11.48% | 23.17% | 2.9% | 15.84% | 31.35% |
| B9 | 1.06% | 4.21% | 12.94% | 1.29% | 6% | 21.87% |
| B10 | 0.38% | 4.68% | 15.91% | 0.65% | 2.67% | 12.57% |
| B11 | 0.91% | 2.45% | 14.12% | 0.22% | 2.22% | 17.16% |
